In the supplement of paper PMC10724198:
± gives the standard deviation of the averaged measurements.

Key:
Saccharomyces cerevisiae [1] = experiment: protein stability index of tFT-peptide fusion (C-terminal peptide) (PSI (0-1 scale)); higher = more stable (slower turnover); conditions: genetic background: wild type; temperature: 30 C
Saccharomyces cerevisiae [2] = experiment: as above
Method: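 MPS profiling in S. cerevisiae of the tFT-X12 degron library: putative degron peptides plus stable controls, 12 aa, fused to the C-terminus of a sfGFP-mCherry timer. Cells are FACS-sorted into 8 mCherry/sfGFP bins and deep-sequenced. PSI runs from 0 (unstable) to 1 (stable). Backgrounds are wild type, das1Δ and doa10Δ at 30 °C, and wild type, das1Δ, cdc34-1 and cdc53-1 at 37 °C; 2-3 technical replicates each.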

[3] = genetic background: cdc34-1, temperature: 37 C
[4] = genetic background: cdc53-1, temperature: 37 C
[5] = genetic background: das1 deletion, temperature: 30 C
[6] = genetic background: das1 deletion, temperature: 37 C
[7] = genetic background: doa10 deletion, temperature: 30 C
[8] = genetic background: wild type, temperature: 30 C
[9] = genetic background: wild type, temperature: 37 C
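Further: PSI is a weighted mean of sequencing reads over stability bins, variants kept only with over 10 reads, mCherry proximal and sfGFP distal, peptide attached via GGGS linker.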

Sequence	protein stability index (Saccharomyces cerevisiae [1])	protein stability index (Saccharomyces cerevisiae [2]; [3])	protein stability index (Saccharomyces cerevisiae [2]; [4])	protein stability index (Saccharomyces cerevisiae [2]; [5])	protein stability index (Saccharomyces cerevisiae [2]; [6])	protein stability index (Saccharomyces cerevisiae [2]; [7])	protein stability index (Saccharomyces cerevisiae [2]; [8])	protein stability index (Saccharomyces cerevisiae [2]; [9])
IKERRKVSMKVY	0.474 ± 0.022	0.639 ± 0.023	0.688 ± 0.02	0.519 ± 0.035	0.677 ± 0.018	0.321 ± 0.009	0.373 ± 0.015	0.557 ± 0.032
ILFCVRIGLFWT	0.219 ± 0.051	0.0461 ± 0.0067	0.135 ± 0.0014	0.137 ± 0.03	0.24 ± 0.0035	0.146 ± 0.019	0.128 ± 0.03	0.179 ± 0.014
INGINHKIIKIV	0.155 ± 0.025	0.44 ± 0.025	0.721 ± 0.042	0.65 ± 0.036	0.72 ± 0.013	0.0842 ± 0.014	0.0896 ± 0.017	0.0909 ± 0.0048
INILVIWRKNHV	0.129 ± 0.048	0.463 ± 0.00091	0.671 ± 0.041	0.5213 ± 0.0049	0.662 ± 0.014	0.0744 ± 0.0074	0.0776 ± 0.024	0.114 ± 0.021
IPLGLTLVQCLY	0.53 ± 0.053	0.614 ± 0.03	0.61 ± 0.029	0.491 ± 0.042	0.60744 ± 0.00017	0.4357 ± 0.00058	0.477 ± 0.009	0.576 ± 0.0069
IREYSIRIKRLQ	0.33 ± 0.036	0.623 ± 0.062	0.722 ± 0.052	0.64 ± 0.041	0.719 ± 0.022	0.138 ± 0.016	0.146 ± 0.04	0.318 ± 0.058
IRFFLIVFCFLR	0.284 ± 0.021	0.157 ± 0.015	0.131 ± 0.017	0.251 ± 0.019	0.286 ± 0.041	0.273 ± 0.0057	0.203 ± 0.025	0.226 ± 0.022
ISATYSYIPVVG	0.455 ± 0.038	0.502 ± 0.0071	0.496 ± 0.011	0.346 ± 0.024	0.541 ± 0.012	0.32388 ± 3.1e-05	0.378 ± 0.023	0.507 ± 0.0073
ISVRKTFLIVLC	0.232 ± 0.022	0.331 ± 0.031	0.351 ± 0.018	0.266 ± 0.047	0.486 ± 0.01	0.152 ± 0.015	0.156 ± 0.013	0.279 ± 0.025
IVFLPVLLWFSV	0.407 ± 0.015	0.389 ± 0.0069	0.411 ± 0.0085	0.333 ± 0.032	0.474 ± 0.0013	0.373 ± 0.019	0.297 ± 0.035	0.442 ± 0.0084
IVTSFVSPVYIC	0.12 ± 0.029	0.396 ± 0.035	0.5353 ± 0.003	0.456 ± 0.017	0.634 ± 0.055	0.0637 ± 0.023	0.0746 ± 0.014	0.0794 ± 0.021
IWVFSVTGWCGC	0.452 ± 0.024	0.501 ± 0.0055	0.589 ± 0.018	0.401 ± 0.022	0.55 ± 0.008	0.3804 ± 0.0007	0.417 ± 0.019	0.532 ± 0.016
IYITFQIYVSDM	0.229 ± 0.018	0.104 ± 0.018	0.172 ± 0.0076	0.161 ± 0.019	0.267 ± 0.0076	0.0912 ± 0.04	0.127 ± 0.0083	0.244 ± 0.032
IYLLLFFFSFSA	0.3914 ± 0.0012	0.365 ± 0.032	0.449 ± 0.053	0.376 ± 0.017	0.5104 ± 0.0037	0.3328 ± 6e-05	0.348 ± 0.029	0.457 ± 0.024
KKKQAILRTLKI	0.406 ± 0.0082	0.681 ± 0.079	0.74 ± 0.026	0.663 ± 0.049	0.697 ± 0.037	0.177 ± 0.045	0.197 ± 0.0073	0.417 ± 0.013
KKKTKYSKDKLC	0.343 ± 0.035	0.607 ± 0.03	0.696 ± 0.025	0.662 ± 0.036	0.723 ± 0.021	0.191 ± 0.028	0.217 ± 0.013	0.456 ± 0.04
KKTKKTMIIKTT	0.463 ± 0.0091	0.693 ± 0.066	0.706 ± 0.027	0.6314 ± 0.005	0.745 ± 0.0037	0.33 ± 0.021	0.369 ± 0.04	0.6051 ± 0.0008
KLKLWSIIKNNA	0.385 ± 0.03	0.686 ± 0.06	0.749 ± 0.021	0.658 ± 0.022	0.745 ± 0.015	0.181 ± 0.008	0.25 ± 0.05	0.484 ± 0.053
KLMGWFVGVVAR	0.442 ± 0.015	0.494 ± 0.0073	0.49 ± 0.019	0.355 ± 0.025	0.535 ± 0.011	0.323 ± 0.0045	0.351 ± 0.039	0.517 ± 0.033
KLVFLLCLNKVF	0.243 ± 0.037	0.51474 ± 0.00047	0.5887 ± 0.0014	0.439 ± 0.017	0.63 ± 0.0047	0.173 ± 0.018	0.199 ± 0.013	0.29 ± 0.0089

Sequence	protein stability index (Saccharomyces cerevisiae [1])	protein stability index (Saccharomyces cerevisiae [2]; [3])	protein stability index (Saccharomyces cerevisiae [2]; [4])	protein stability index (Saccharomyces cerevisiae [2]; [5])	protein stability index (Saccharomyces cerevisiae [2]; [6])	protein stability index (Saccharomyces cerevisiae [2]; [7])	protein stability index (Saccharomyces cerevisiae [2]; [8])	protein stability index (Saccharomyces cerevisiae [2]; [9])
KRKKHKRKLVIC	0.265 ± 0.043	0.611 ± 0.03	0.674 ± 0.025	0.612 ± 0.012	0.732 ± 0.012	0.14 ± 0.027	0.154 ± 0.045	0.148 ± 0.05
KRSPPPATPSSG	0.24 ± 0.034	0.6827 ± 0.0047	0.73 ± 0.013	0.631 ± 0.025	0.76 ± 0.043	0.6035 ± 0.0057	0.623 ± 0.0081	0.704 ± 0.012
KSARLYVTSFLC	0.194 ± 0.0022	0.571 ± 0.0067	0.682 ± 0.035	0.623 ± 0.012	0.739 ± 0.023	0.107 ± 0.012	0.123 ± 0.0064	0.179 ± 0.02
KTRQLINKITQM	0.254 ± 0.072	0.6601 ± 0.00086	0.693 ± 0.019	0.62 ± 0.018	0.7358 ± 0.0036	0.137 ± 0.024	0.153 ± 0.031	0.288 ± 0.031
KYCPCIPLLIAL	0.429 ± 0.0047	0.406 ± 0.0064	0.381 ± 0.012	0.339 ± 0.036	0.5 ± 0.012	0.387 ± 0.013	0.329 ± 0.033	0.443 ± 0.012
LAVRSGFPFGLF	0.249 ± 0.0026	0.642 ± 0.034	0.757 ± 0.013	0.674 ± 0.012	0.783 ± 0.036	0.117 ± 0.017	0.122 ± 0.03	0.224 ± 0.014
LCLLHCSICISF	0.388 ± 0.014	0.352 ± 0.026	0.4113 ± 0.0012	0.301 ± 0.027	0.44881 ± 0.00028	0.285 ± 0.015	0.295 ± 0.036	0.4142 ± 0.0008
LCLLIHFWISHL	0.244 ± 0.023	0.302 ± 0.0069	0.44 ± 0.009	0.295 ± 0.028	0.43 ± 0.019	0.167 ± 0.0048	0.173 ± 0.013	0.2932 ± 0.0011
LCVFFRCFFVGG	0.514 ± 0.028	0.529 ± 0.046	0.588 ± 0.022	0.457 ± 0.015	0.608 ± 0.0094	0.433 ± 0.017	0.448 ± 0.018	0.5722 ± 0.0043
LCWRLCRFWWVG	0.363 ± 0.016	0.75 ± 0.068	0.8494 ± 0.0062	0.691 ± 0.033	0.829 ± 0.014	0.255 ± 0.0076	0.254 ± 0.024	0.424 ± 0.013
LDHGRVVWVVVS	0.278 ± 0.022	0.371 ± 0.036	0.43 ± 0.021	0.3 ± 0.034	0.493 ± 0.0092	0.174 ± 0.011	0.201 ± 0.023	0.284 ± 0.008
LDRLTTWTLIVR	0.471 ± 0.031	0.457 ± 0.031	0.455 ± 0.011	0.379 ± 0.026	0.524 ± 0.0076	0.413 ± 0.0057	0.365 ± 0.021	0.482 ± 0.0083
LERLHSVLLLTS	0.284 ± 0.021	0.246 ± 0.0054	0.254 ± 0.0079	0.223 ± 0.036	0.379 ± 0.0057	0.165 ± 0.019	0.217 ± 0.027	0.324 ± 0.011
LFFLPPCYWFLL	0.489 ± 0.019	0.665 ± 0.023	0.773 ± 0.024	0.5834 ± 0.0043	0.732 ± 0.049	0.384 ± 0.034	0.392 ± 0.03	0.571 ± 0.013
LFFWWVAVVFRV	0.23 ± 0.038	0.0928 ± 0.025	0.0916 ± 0.006	0.156 ± 0.049	0.236 ± 0.029	0.204 ± 0.016	0.133 ± 0.02	0.189 ± 0.014
LFLVFIGLFFLT	0.413 ± 0.012	0.348 ± 0.011	0.429 ± 0.035	0.359 ± 0.061	0.46 ± 0.011	0.338 ± 0.011	0.327 ± 0.015	0.441 ± 0.01
LFRFSRLFLFVL	0.207 ± 0.061	0.36 ± 0.034	0.446 ± 0.11	0.578 ± 0.0093	0.74 ± 0.028	0.214 ± 0.042	0.153 ± 0.034	0.201 ± 0.017
LFRRMWVEIFYV	0.253 ± 0.046	0.439 ± 0.044	0.541 ± 0.043	0.423 ± 0.029	0.566 ± 0.015	0.0969 ± 0.016	0.119 ± 0.0081	0.155 ± 0.021
LGKSTLYMALNN	0.402 ± 0.047	0.587 ± 0.057	0.716 ± 0.036	0.611 ± 0.011	0.695 ± 0.017	0.273 ± 0.013	0.309 ± 0.038	0.571 ± 0.11
